# Laboratory results taken from the RNAGym collection of RNA variant scans (doi:10.7554/elife.80360).
# B1: Hammerhead Ribozyme (parent)
# chain: ACCGGAUGUGCUUUCCGGUCUGAUGAGUCCGUGAGGACGAAACAG
# Variants of: B1
# Test: self-cleavage, relative activity (ratio to wild type); higher = more cleavage; co-transcriptional
row,Variant,self-cleavage
1,ACCGGAUGAGCUUUCCGGUCUGAUGAGUCCGUGAGGACGAAACAA [U9A G45A],0.707
2,ACCGGAUGAGCUUUCCGGUCUGAUGAGUCCGUGAGGACGAAACAC [U9A G45C],0.609
3,ACCGGAUGAGCUUUCCGGUCUGAUGAGUCCGUGAGGACGAAACAU [U9A G45U],0.638
4,ACCGGAUGAGCAUUCCGGUCUGAUGAGUCCGUGAGGACGAAACAG [U9A U12A],1.23
5,ACCGGAUGAGCCUUCCGGUCUGAUGAGUCCGUGAGGACGAAACAG [U9A U12C],0.947
6,ACCGGAUGAGCGUUCCGGUCUGAUGAGUCCGUGAGGACGAAACAG [U9A U12G],0.802
7,ACCGGAUGAGCUAUCCGGUCUGAUGAGUCCGUGAGGACGAAACAG [U9A U13A],1.62
8,ACCGGAUGAGCUCUCCGGUCUGAUGAGUCCGUGAGGACGAAACAG [U9A U13C],1.37
9,ACCGGAUGAGCUGUCCGGUCUGAUGAGUCCGUGAGGACGAAACAG [U9A U13G],1.1
10,ACCGGAUGAGCUUACCGGUCUGAUGAGUCCGUGAGGACGAAACAG [U9A U14A],1.07
11,ACCGGAUGAGCUUCCCGGUCUGAUGAGUCCGUGAGGACGAAACAG [U9A U14C],0.73
12,ACCGGAUGAGCUUGCCGGUCUGAUGAGUCCGUGAGGACGAAACAG [U9A U14G],1
13,ACCGGAUGAGCUUUCCGGACUGAUGAGUCCGUGAGGACGAAACAG [U9A U19A],0.291
14,ACCGGAUGAGCUUUCCGGCCUGAUGAGUCCGUGAGGACGAAACAG [U9A U19C],0.535
15,ACCGGAUGAGCUUUCCGGGCUGAUGAGUCCGUGAGGACGAAACAG [U9A U19G],0.398
16,ACCGGAUGAGCUUUCCGGUCAGAUGAGUCCGUGAGGACGAAACAG [U9A U21A],0.528
17,ACCGGAUGAGCUUUCCGGUCCGAUGAGUCCGUGAGGACGAAACAG [U9A U21C],0.649
18,ACCGGAUGAGCUUUCCGGUCGGAUGAGUCCGUGAGGACGAAACAG [U9A U21G],0.58
19,ACCGGAUGAGCUUUCCGGUCUGAAGAGUCCGUGAGGACGAAACAG [U9A U24A],1.2

row,Variant,self-cleavage
1,ACCGGAUGAGCUUUCCGGUCUGACGAGUCCGUGAGGACGAAACAG [U9A U24C],1.38
2,ACCGGAUGAGCUUUCCGGUCUGAGGAGUCCGUGAGGACGAAACAG [U9A U24G],0.919
3,ACCGGAUGAGCUUUCCGGUCUGAUGAGACCGUGAGGACGAAACAG [U9A U28A],0.803
4,ACCGGAUGAGCUUUCCGGUCUGAUGAGCCCGUGAGGACGAAACAG [U9A U28C],0.98
5,ACCGGAUGAGCUUUCCGGUCUGAUGAGGCCGUGAGGACGAAACAG [U9A U28G],0.823
6,ACCGGAUGAGCUUUCCGGUCUGAUGAGUCCGAGAGGACGAAACAG [U9A U32A],0.964
7,ACCGGAUGAGCUUUCCGGUCUGAUGAGUCCGCGAGGACGAAACAG [U9A U32C],0.953
8,ACCGGAUGAGCUUUCCGGUCUGAUGAGUCCGGGAGGACGAAACAG [U9A U32G],0.539
9,ACCGGAUGCGCUUUCCGGUCUGAUGAGUCCGUGAGGACGAAACAG [U9C],1.02
10,ACCGGAUGCGCUUUCCGGUCUGCUGAGUCCGUGAGGACGAAACAG [U9C A23C],0.283
11,ACCGGAUGCGCUUUCCGGUCUGGUGAGUCCGUGAGGACGAAACAG [U9C A23G],0.361
12,ACCGGAUGCGCUUUCCGGUCUGUUGAGUCCGUGAGGACGAAACAG [U9C A23U],0.358
13,ACCGGAUGCGCUUUCCGGUCUGAUGCGUCCGUGAGGACGAAACAG [U9C A26C],0.554
14,ACCGGAUGCGCUUUCCGGUCUGAUGGGUCCGUGAGGACGAAACAG [U9C A26G],0.379
15,ACCGGAUGCGCUUUCCGGUCUGAUGUGUCCGUGAGGACGAAACAG [U9C A26U],0.671
16,ACCGGAUGCGCUUUCCGGUCUGAUGAGUCCGUGCGGACGAAACAG [U9C A34C],0.94
17,ACCGGAUGCGCUUUCCGGUCUGAUGAGUCCGUGGGGACGAAACAG [U9C A34G],0.946
18,ACCGGAUGCGCUUUCCGGUCUGAUGAGUCCGUGUGGACGAAACAG [U9C A34U],0.65
19,ACCGGAUGCGCUUUCCGGUCUGAUGAGUCCGUGAGGCCGAAACAG [U9C A37C],1.03

row,Variant,self-cleavage
1,ACCGGAUGCGCUUUCCGGUCUGAUGAGUCCGUGAGGGCGAAACAG [U9C A37G],1.61
2,ACCGGAUGCGCUUUCCGGUCUGAUGAGUCCGUGAGGUCGAAACAG [U9C A37U],0.666
3,ACCGGAUGCGCUUUCCGGUCUGAUGAGUCCGUGAGGACGCAACAG [U9C A40C],0.633
4,ACCGGAUGCGCUUUCCGGUCUGAUGAGUCCGUGAGGACGGAACAG [U9C A40G],0.374
5,ACCGGAUGCGCUUUCCGGUCUGAUGAGUCCGUGAGGACGUAACAG [U9C A40U],0.406
6,ACCGGAUGCGCUUUCCGGUCUGAUGAGUCCGUGAGGACGACACAG [U9C A41C],0.407
7,ACCGGAUGCGCUUUCCGGUCUGAUGAGUCCGUGAGGACGAGACAG [U9C A41G],0.356
8,ACCGGAUGCGCUUUCCGGUCUGAUGAGUCCGUGAGGACGAUACAG [U9C A41U],0.34
9,ACCGGAUGCGCUUUCCGGUCUGAUGAGUCCGUGAGGACGAACCAG [U9C A42C],0.351
10,ACCGGAUGCGCUUUCCGGUCUGAUGAGUCCGUGAGGACGAAGCAG [U9C A42G],0.332
11,ACCGGAUGCGCUUUCCGGUCUGAUGAGUCCGUGAGGACGAAUCAG [U9C A42U],0.345
12,ACCGGAUGCGCUUUCCGGUCUGAUGAGUCCGUGAGGACGAAACCG [U9C A44C],0.493
13,ACCGGAUGCGCUUUCCGGUCUGAUGAGUCCGUGAGGACGAAACGG [U9C A44G],1.32
14,ACCGGAUGCGCUUUCCGGUCUGAUGAGUCCGUGAGGACGAAACUG [U9C A44U],0.661
15,ACCGGAUGCGAUUUCCGGUCUGAUGAGUCCGUGAGGACGAAACAG [U9C C11A],1.6
16,ACCGGAUGCGGUUUCCGGUCUGAUGAGUCCGUGAGGACGAAACAG [U9C C11G],0.944
17,ACCGGAUGCGUUUUCCGGUCUGAUGAGUCCGUGAGGACGAAACAG [U9C C11U],0.889
18,ACCGGAUGCGCUUUACGGUCUGAUGAGUCCGUGAGGACGAAACAG [U9C C15A],0.956
19,ACCGGAUGCGCUUUGCGGUCUGAUGAGUCCGUGAGGACGAAACAG [U9C C15G],0.49
